The results in this text go back to PMC8951703, “A multifunctional enolase mediates cytoadhesion and interaction with host plasminogen and fibronectin in Mycoplasma hyorhinis” (Veterinary Research, 2022).

For the assay, the target named is T1, Recombinant M. hyorhinis enolase, wild-type (Mycoplasma hyorhinis (strain HUB-1), UniProt P0DXB0 1-450).
T1 construct: enolase of Mycoplasma hyorhinis strain HUB-1, full-length gene MHR_0469 of GenBank CP002170.1, codon-optimized and synthesized; the C-terminal residues are K451 and K452; also called rEno; rEno WT
The experiment in a line: SPR; plasminogen or fibronectin immobilised on CM5 chips by amine coupling (600 RU); recombinant enolase proteins 0-4000 nM injected at 30 uL/min for 180 s, 20 °C, dissociation 1000 s; 10 mM HEPES, 150 mM NaCl, 3 mM EDTA, 0.05% surfactant P20; Biacore X100. The settings on record: both partners purified.

B1: plasminogen (natural protein)
chain: EPLDDYVNTQGASLFSVTKKQLGAGSIEECAAKCEEDEEFTCRAFQYHSKEQQCVIMAENRKSSIIIRMRDVVLFEKKVYLSECKTGNGKNYRGTMSKTKNGITCQKWSSTSPHRPRFSPATHPSEGLEENYCRNPDNDPQGPWCYTTDPEKRYDYCDILECEEECMHCSGENYDGKISKTMSGLECQAWDSQSPHAHGYIPSKFPNKNLKKNYCRNPDRELRPWCFTTDPNKRWELCDIPRCTTPPPSSGPTYQCLKGTGENYRGNVAVTVSGHTCQHWSAQTPHTHNRTPENFPCKNLDENYCRNPDGKRAPWCHTTNSQVRWEYCKIPSCDSSPVSTEQLAPTAPPELTPVVQDCYHGDGQSYRGTSSTTTTGKKCQSWSSMTPHRHQKTPENYPNAGLTMNYCRNPDADKGPWCFTTDPSVRWEYCNLKKCSGTEASVVAPPPVVLLPDVETPSEEDCMFGNGKGYRGKRATTVTGTPCQDWAAQEPHRHSIFTPETNPRAGLEKNYCRNPDGDVGGPWCYTTNPRKLYDYCDVPQCAAPSFDCGKPQVEPKKCPGRVVGGCVAHPHSWPWQVSLRTRFGMHFCGGTLISPEWVLTAAHCLEKSPRPSSYKVILGAHQEVNLEPHVQEIEVSRLFLEPTRKDIALLKLSSPAVITDKVIPACLPSPNYVVADRTECFITGWGETQGTFGAGLLKEAQLPVIENKVCNRYEFLNGRVQSTELCAGHLAGGTDSCQGDSGGPLVCFEKDKYILQGVTSWGLGCARPNKPGVYVRVSRFVTWIEGVMRNN
Turning to B1, the Kd is 1.4 ± 0.07 nM.
